The source of these data is paper PMC7231451.

Assay [1] addresses Complement C3 (purified, native) (UniProt P01024). As to the kind of experiment: flow cytometry on coated beads. On the technique in general: Flow cytometry measures light scatter and fluorescence of single cells or particles in a stream.
The target is the same in assay [2]. As to the kind of experiment: pull-down.
Assay [3] concerns the target associated or linker proteins (plasma proteins of the approximately 320 kDa complex). As to the kind of experiment: SEC. On the technique in general: SEC sorts molecules by how far they enter the pores of the column.

As to “plasma purified human AAT (natural protein)”, the fluorescence intensity of binding (h-AAT vs r-AAT) in assay [1] came to 1.5 AU. This substance registered a Western blot densitometry of bound AAT (C3-coated beads vs control beads) in assay [2] of 2.7 AU.

Substance “Alpha-1 antitrypsin (from UniProt P01009 25-418) (natural protein)” registered a percent of AAT in the complex in assay [3] of 13%.
